Here are results for one molecule from US20030040044A1.

The target of assay [1] is αVβ3 integrin on human cells (human) (UniProt P06756). The assay is described as follows: saturation binding of 125-I ReoPro to M21 cells (express αvβ3 and αvβ5; ReoPro showed no binding to αvβ5), n = 3.
Assay [2] shares this target. Kind of assay: saturation binding of 125-I ReoPro to A375S2 cells (express αvβ3 and αvβ5; ReoPro showed no binding to αvβ5), n = 3.
Assay [3] has the same target. Kind of assay: saturation binding of 125-I ReoPro to M21 cells, Bmax, n = 7.
Assay [4] shares this target.
Assay [5] shares this target. This is another data set of the same source.
Assay [6] has the same target. The assay is described as follows: saturation binding of 125-I ReoPro to A375S2 cells, Bmax, n = 6.

A word on the Kd: it is the constant that tells how readily two partners part at equilibrium.

B1: ReoPro (Fab, INN chains, looked up, V domains shown)
VH: EVQLQQSGTVLARPGASVKMSCEASGYTFTNYWMHWVKQRPGQGLEWIGAIYPGNSDTSYIQKFKGKAKLTAVTSTTSVYMELSSLTNEDSAVYYCTLYDGYYVFAYWGQGTLVTVSA
VL: EIVLTQSPVTLSVTPGDSVSLSCRASRDISNNLHWFQQTSHESPRLLIKYASQSMSGIPSRFSGSGSGTDFTLSINSVETEDFGMYFCQQTNSWPYTFGGGTKLEIK
modifications: Fab 125I label in some assays
For the molecule B1, the Kd in assay [1] was 10 nM. Also, the Kd in assay [2] was 22 nM. In assay [3], this molecule yielded a Receptors per cell (receptors per cell) of 660000. Besides, in assay [4], the Adhesion (%) of HUVEC to fibrin (% of adhesion without antibody) is 35.8, the Adhesion (%) of HUVEC to fibrinogen (% of adhesion without antibody) came out at 8.7, the Adhesion (%) of HUVEC to gelatin (% of adhesion without antibody) is 2.5 and the Adhesion (%) of HUVEC to vitronectin (% of adhesion without antibody) turned out to be 54.9. In addition, in assay [5], the Adhesion (%) of A375S.2 cells to fibrin (% of adhesion without antibody) came out at 12.9, the Adhesion (%) of A375S.2 cells to fibrinogen (% of adhesion without antibody) turned out to be 6.5, the Adhesion (%) of A375S.2 cells to gelatin (% of adhesion without antibody) worked out at 6 and the Adhesion (%) of A375S.2 cells to vitronectin (% of adhesion without antibody) turned out to be 38.1. Besides, the Receptors per cell (receptors per cell) in assay [6] came to 370000.
